Laboratory results published in US20080242590A1, “New Method 706” (ASTRAZENECA AB, priority 2007, published 2008).

System: fluorogenic peptide substrate V—Mca-Arg-Pro-Gly-Phe-Ser-Ala-Phe-Lys(Dnp)-OH
Test: Neprilysin enzyme activity FRET assay, cell media
Assay type: biochemical
Method: The Neprilysin enzymatic activity was determined in a fluorescence resonance energy transfer (FRET) assay. Recombinant Human Neprilysin (R&D Systems), culture medium from Neprilysin or Fc-Neprilysin producing cells (AZ Sodertalje) or purified Neprilysin or Fc-Neprilysin was added into 96-well plate containing 10 μM of fluorogenic peptide substrate V—Mca-Arg-Pro-Gly-Phe-Ser-Ala-Phe-Lys(Dnp)-OH (R&D Systems). The final concentration of the control recombinant human Neprilysin was 0.1 or 0.25 μg/ml. 10 μM of Neprilysin inhibitor phosphoramidone (BIOMOL) was added into some wells in order to control the specificity of the signal in the assay and verify the specific Neprilysin activity. Following addition of all components to wells, plate was immediately placed into a fluorescent plate reader (Ascent) and signal was recorded for every minute for 20 minutes at the excitation 340 nm and emission 405 nm. The activity of enzyme was evaluated by calculating the velocity of reaction−Slope coefficient=ΣΔRFU/Δt. In order to compare the specific activity of the commercial recombinant Neprilysin and Fc-Neprilysin fusion protein, we introduced the specific activity coefficient, which is calculated according to this formula: Specific activity=slope coefficient/pmol of Neprilysin or monomer of Fc-Neprilysin in assay. […]

B1: Fc-Neprilysin: extracellular domain of human Neprilysin fused to the human IgG2 Fc domain (including hinge), Fc at N-terminus; SEQ ID NO 11 (protein)
chain: ERKCCVECPPCPAPPVAGPSVFLFPPKPKDTLMISRTPEVTCVVVDVSHEDPEVQFNWYVDGVEVHNAKTKPREEQFNSTFRVVSVLTVVHQDWLNGKEYKCKVSNKGLPAPIEKTISKTKGQPREPQVYTLPPSREEMTKNQVSLTCLVKGFYPSDIAVEWESNGQPENNYKTTPPMLDSDGSFFLYSKLTVDKSRWQQGNVFSCSVMHEALHNHYTQKSLSLSPGKYDDGICKSSDCIKSAARLIQNMDATTEPCTDFFKYACGGWLKRNVIPETSSRYGNFDILRDELEVVLKDVLQEPKTEDIVAVQKAKALYRSCINESAIDSRGGEPLLKLLPDIYGWPVATENWEQKYGASWTAEKAIAQLNSKYGKKVLINLFVGTDDKNSVNHVIHIDQPRLGLPSRDYYECTGIYKEACTAYVDFMISVARLIRQEERLPIDENQLALEMNKVMELEKEIANATAKPEDRNDPMLLYNKMTLAQIQNNFSLEINGKPFSWLNFTNEIMSTVNISITNEEDVVVYAPEYLTKLKPILTKYSARDLQNLMSWRFIMDLVSSLSRTYKESRNAFRKALYGTTSETATWRRCANYVNGNMENAVGRLYVEAAFAGESKHVVEDLIAQIREVFIQTLDDLTWMDAETKKRAEEKALAIKERIGYPDDIVSNDNKLNNEYLELNYKEDEYFENIIQNLKFSQSKQLKKLREKVDKDEWISGAAVVNAFYSSGRNQIVFPAGILQPPFFSAQQSNSLNYGGIGMVIGHEITHGFDDNGRNFNKDGDLVDWWTQQSASNFKEQSQCMVYQYGNFSWDLAGGQHLNGINTLGENIADNGGLGQAYRAYQNYIKKNGEEKLLPGLDLNHKQLFFLNFAQVWCGTYRPEYAVNSIKTDVHSPGNFRIIGTLQNSAEFSEAFHCRKNSYMNPEKKCRVW
- Specific activity (slope coefficient/pmol) (expression with pCEP4 vector): 13.4
- Specific activity (slope coefficient/pmol) (expression with pEAK10 vector): 15.2
